B1: Pistol ribozyme (parent)
chain: GGGUCGUUGUUCCAUAAUCGCGUGGAUAUGGCACGCAAGUUUCUACCGGGCACCGUAAAUGUCCGACUGGAGCCGUUCGGGCGGCUAUAAACAGACCUCAGGCCCGAAGCGUGGCGGCACCUGCCGCCGGUGGUAAAAAAGAUCGGAAGAGCACACGUCU

Variants of: B1
Assay: aptazyme ON/OFF ratio, guanine; higher = stronger switching; co-transcriptional cleavage with and without guanine

Point of comparison: U8G G9A U10A U11C C12G C13A, “aptazyme ON/OFF ratio” value 1.24. Against it:
- U8G G9A U11A C12U C13A — the same, 1.24
- U8G G9A U11A C12U C13U — higher, 1.27
- U8G G9A U11A C12U C13G — lower, 1.18
- U8G G9C C12A C13A — lower, 1.04
- U8G G9C C12A C13U — lower, 1.07
- U8G G9C C12A C13G — lower, 1.03
- U8G G9C U10A U11C C12U C13A — lower, 1.09
- U8G G9C U10A U11C C12U C13G — lower, 1.06
- U8G G9C U10A U11C C12U C13U — lower, 1.02
- U8G G9A U10A U11A C12A — lower, 1.21
- U8G G9A U10A U11A C12U — higher, 1.35
- U8G G9A U10A U11A C12G — higher, 1.28
- U8G G9A U10C U11A C12A C13G — lower, 1.11
- U8G G9A U10C U11A C12A C13U — lower, 1.16
- U8G G9A U10C U11A C12A C13A — lower, 1.15
- U8G G9A U10G C12G C13U — higher, 1.27
- U8G G9A U10G C12G C13G — lower, 1.16
- U8G G9A U10G C12G C13A — higher, 1.52
- U8G G9A U10G U11A C12G C13U — the same, 1.24
- U8G G9A U10G U11A C12G C13G — lower, 1.03
- U8G G9A U10G U11A C12G C13A — lower, 1.21
- U8G G9C U10A U11A C13A — lower, 1.11
- U8G G9C U10A U11A C13G — lower, 1.04
- U8G G9C U10A U11A C13U — lower, 1.15
- U8G G9C U10A C12A C13G — lower, 1.12
- U8G G9C U10A C12A C13U — lower, 1.17
- U8G G9C U10A C12A C13A — lower, 1.13
- U8G G9A U10G U11C C12G — lower, 1.19
- U8G G9A U10G U11C C12A — lower, 1.19
- U8G G9A U10G U11C C12U — lower, 1.02
- U8G G9A U10C U11G C13A — lower, 1.11
- U8G G9A U10C U11G C13G — lower, 1.16
- U8G G9A U10C U11G C13U — lower, 1.09
- U8G G9A U10A U11G C12U C13G — higher, 1.25
- U8G G9A U10A U11G C12U C13U — higher, 1.56
- U8G G9A U10A U11G C12U C13A — higher, 1.31
- U8G G9A U10A U11C C12G C13U — higher, 1.36
- U8G G9A U10A U11C C12G C13G — lower, 1.21
- U8G G9A U10C U11A — higher, 1.37
- U8G G9A U10C U11C — lower, 1.03
- U8G G9A U10C U11G — higher, 1.34
- U8G G9A U10G U11G C12A C13A — higher, 1.57
- U8G G9A U10G U11G C12A C13G — lower, 1.16
- U8G G9A U10G U11G C12A C13U — higher, 1.41
- U8G G9A U10A U11G C13U — lower, 1.06
- U8G G9A U10A U11G C13A — lower, 1.23
- U8G G9A U10A U11G C13G — lower, 1.07
- U8G G9C U10A C12U C13A — lower, 1.15
- U8G G9C U10A C12U C13G — lower, 1.1
- U8G G9C U10A C12U C13U — lower, 1.07
- U8G G9A U11G C13U — lower, 1.04
- U8G G9A U11G C13A — lower, 1.07
- U8G G9A U11G C13G — lower, 1.05
- U8G G9A U11A C13G — lower, 1.07
- U8G G9A U11A C13U — lower, 1.23
- U8G G9A U11A C13A — lower, 1.14
- U8G G9A U10C U11C C12U — lower, 1.02
- U8G G9A U10C U11C C12G — lower, 1.05
- U8G G9A U10C U11C C12A — lower, 1.08
- U8G G9C U10A U11G C12G C13G — higher, 1.31
- U8G G9C U10A U11G C12G C13U — lower, 1.22
- U8G G9C U10A U11G C12G C13A — higher, 1.35
- U8G G9A U10A C13G — lower, 1.08
- U8G G9A U10A C13A — higher, 1.25
- U8G G9A U10A C13U — lower, 1.22
- U8G G9C U10A U11C C12G C13A — lower, 1.05
- U8G G9C U10A U11C C12G C13U — lower, 1.14
- U8G G9C U10A U11C C12G C13G — lower, 1.05
- U8G G9A U10A U11C C12A C13A — lower, 1.21
- U8G G9A U10A U11C C12A C13G — lower, 1.12
- U8G G9A U10A U11C C12A C13U — higher, 1.32
- U8G G9A U10G U11C C13G — lower, 1.05
- U8G G9A U10G U11C C13U — lower, 1.05
- U8G G9A U10G U11C C13A — lower, 1.06
- U8G C12U C13U — lower, 1.18
- U8G G9A U10A U11C C13A — lower, 1.08
- U8G G9A U10A U11C C13U — lower, 1.01
- U8G G9A U10A U11C C13G — lower, 1.04
- U8G G9A U10C C12A C13U — lower, 1.17
- U8G G9A U10C C12A C13G — lower, 1.09
- U8G G9A U10C C12A C13A — lower, 1.2
- U8G G9A U10C C12G — lower, 1.2
- U8G G9A U10C C12A — higher, 1.25
- U8G G9A U10C C12U — lower, 1.14
- U8G G9A U11G C12G C13U — lower, 1.23
- U8G G9A U11G C12G C13G — higher, 1.57
- U8G G9A U11G C12G C13A — higher, 1.27
- U8G G9A C12U — higher, 1.39
- U8G G9A C12A — higher, 1.61
- U8G G9A C12G — lower, 1.16
- U8G G9A U11A C12G — lower, 1.17
- U8G G9A U11A C12U — higher, 1.43
- U8G G9A U11A C12A — higher, 1.33
- U8G G9A U10C U11C C12A C13A — lower, 1.05
- U8G G9A U10C U11C C12A C13G — lower, 1.12
- U8G G9A U10C U11C C12A C13U — lower, 1.07
- U8G G9A U10C U11A C12G C13G — lower, 1.07
- U8G G9A U10C U11A C12G C13A — lower, 1.16
- U8G G9A U10C U11A C12G C13U — lower, 1.15
- U8G G9A U11G C12A C13U — the same, 1.24
- U8G G9A U11G C12A C13G — lower, 1.2
- U8G G9A U11G C12A C13A — lower, 1.16
- U8G G9A U10A U11A C12U C13U — lower, 1.21
- U8G G9A U10A U11A C12U C13A — higher, 1.36
- U8G G9A U10A U11A C12U C13G — lower, 1.09
- U8G G9C U10A U11G C12A C13A — lower, 1.07
- U8G G9C U10A U11G C12A C13G — lower, 1.14
- U8G G9C U10A U11G C12A C13U — lower, 1.16
- U8G G9C C12U C13U — lower, 1.06
- U8G G9C C12U C13A — lower, 1.05
- U8G G9C C12U C13G — lower, 1.04
- U8G G9A U10G U11G — higher, 1.59
- U8G G9A U10G U11C — lower, 1.05
- U8G G9A U10G U11A — lower, 1.05
- U8G G9A U10G U11A C12G — higher, 1.6
- U8G G9A U10G U11A C12A — higher, 1.34
- U8G G9A U10G U11A C12U — higher, 1.35
- U8G G9A U10A C12G C13A — lower, 1.22
- U8G G9A U10A C12G C13G — higher, 1.3
- U8G G9A U10A C12G C13U — higher, 1.35
- U8G G9A U10C U11A C12A — lower, 1.22
- U8G G9A U10C U11A C12G — lower, 1.14
- U8G G9A U10C U11A C12U — lower, 1.1
- U8G G9A U10C U11G C12A C13U — lower, 1.16
- U8G G9A U10C U11G C12A C13G — lower, 1.18
- U8G G9A U10C U11G C12A C13A — lower, 1.18
- U8G G9A U10G U11G C12A — higher, 1.32
- U8G G9A U10G U11G C12U — lower, 1.12
- U8G G9A U10G U11G C12G — higher, 1.33
- U8G G9A U10C C12G C13A — lower, 1.21
- U8G G9A U10C C12G C13U — higher, 1.33
- U8G G9A U10C C12G C13G — lower, 1.2
- U8G G9A U10G U11G C12U C13G — higher, 1.46
- U8G G9A U10G U11G C12U C13U — higher, 1.29
- U8G G9A U10G U11G C12U C13A — higher, 1.36
- U8G G9A U10G U11G C12G C13G — higher, 1.44
- U8G G9A U10G U11G C12G C13A — lower, 1.19
- U8G G9A U10G U11G C12G C13U — higher, 1.37
- U8G G9A U11A C12A C13U — lower, 1.15
- U8G G9A U11A C12A C13G — higher, 1.25
- U8G G9A U11A C12A C13A — lower, 1.19
- U8G G9A U10C C13G — lower, 1.03
- U8G G9A U10C C13U — lower, 1.07
- U8G G9A U10C C13A — lower, 1.04
- U8G G9C C12G C13U — lower, 1.05
- U8G G9C C12G C13G — lower, 1.03
- U8G G9C C12G C13A — lower, 1.05
- U8G G9A — higher, 1.64
- U8G G9C — lower, 1.09
- U8G G9A U10C U11G C12U C13U — lower, 1.21
- U8G G9A U10C U11G C12U C13A — higher, 1.34
- U8G G9A U10C U11G C12U C13G — lower, 1.18
- U8G G9A U10A U11A C12A C13G — lower, 1.18
- U8G G9A U10A U11A C12A C13U — higher, 1.26
- U8G G9A U10A U11A C12A C13A — lower, 1.21
- U8G G9A U10A U11A C13U — lower, 1.17
- U8G G9A U10A U11A C13A — lower, 1.12
- U8G G9A U10A U11A C13G — lower, 1.01
- U8G G9A U10G C12A C13U — higher, 1.45
- U8G G9A U10G C12A C13G — lower, 1.18
- U8G G9A U10G C12A C13A — higher, 1.29
- U8G G9A U10G U11A C12A C13G — higher, 1.27
- U8G G9A U10G U11A C12A C13U — higher, 1.48
- U8G G9A U10G U11A C12A C13A — higher, 1.29
- U8G G9A U10A U11C C12U C13A — lower, 1.18
- U8G G9A U10A U11C C12U C13G — lower, 1.23
